From IntAct's records for PubMed 22575959

Target: rspo1_human RSPO1 (UniProt Q2MKA7)
Sequence (Q2MKA7 whole entry): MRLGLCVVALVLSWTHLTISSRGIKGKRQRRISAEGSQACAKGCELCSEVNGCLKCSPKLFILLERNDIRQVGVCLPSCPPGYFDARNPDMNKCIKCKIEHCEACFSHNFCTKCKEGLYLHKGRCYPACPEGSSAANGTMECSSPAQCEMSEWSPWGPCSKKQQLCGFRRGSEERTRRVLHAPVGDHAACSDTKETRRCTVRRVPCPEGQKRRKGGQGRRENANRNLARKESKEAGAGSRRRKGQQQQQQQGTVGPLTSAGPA

effect of a mutation on the interaction: disrupting interaction strength
Substance: E3 ubiquitin-protein ligase ZNRF3 (Homo sapiens), Q9ULT6 P103A
